# What was measured:
# Assay in all cases: SEC; 100-200 μg of protein on a Superose 6 Increase 10/300GL column
# [1] = target: LayV F clamp2 (prefusion Langya virus fusion glycoprotein ectodomain stabilised with the clamp2 molecular clamp) (Langya virus)
# [2] = target: unstabilised LayV F (ectodomain with C-Tag, without clamp2) (Langya virus)
# [3] = target: unstabilised MojV F (ectodomain with C-Tag, without clamp2) (Mòjiāng virus)
substance,measurement,setting,value
LayV F clamp2 (prefusion Langya virus fusion glycoprotein ectodomain stabilised with the clamp2 molecular clamp) (domain or fragment),stoichiometry N,[1],3
"unstabilised LayV F (ectodomain with C-Tag, without clamp2) (domain or fragment)",stoichiometry N,[2],3
"unstabilised MojV F (ectodomain with C-Tag, without clamp2) (domain or fragment)",stoichiometry N,[3],3

# From PMC10275869
